Assay results from patent publication US20040229310A1 (Genentech, published 2004).

B1: anti-VEGF antibody VNERK with heavy chain FR1 subgroup III sequence (plasmid pxVG11VNERK) (antibody, V domains shown)
VH: EVQLVESGGGLVQPGGSLRLSCAASGYTFTNYGINWVRQAPGKGLEWVGWINTYTGEPTYAADFKRRFTFSLDTSKSTAYLQMNSLRAEDTAVYYCAKYPHYYVNERKSHWYFDVWGQGTLVTVSS
VL: DIQLTQSPSSLSASVGDRVTITCSASQDISNYLNWYQQKPGKAPKVLIYFTSSLHSGVPSRFSGSGSGTDFTLTISSLQPEDFATYYCQQYSTVPWTFGQGTKVEIKR
notes: Full-length humanized antibody made in E. coli (aglycosylated); also called anti-VEGF (VNERK); xVEGF (VNERK)
B2: anti-VEGF antibody VNERK with heavy chain FR1 subgroup I consensus sequence (plasmid pVKFR1-2) (antibody, V domains shown)
VH: QVQLVQSGAEVKKPGASVKVSCKASGYTFTNYGINWVRQAPGKGLEWVGWINTYTGEPTYAADFKRRFTFSLDTSKSTAYLQMNSLRAEDTAVYYCAKYPHYYVNERKSHWYFDVWGQGTLVTVSS
VL: B1 VL
notes: Full-length antibody made in E. coli; differs from VNERK (pxVG11VNERK) by 12 substitutions in heavy chain FR1 (subgroup III to subgroup I); also called pVKFR1-2 (FR1 = SGI); VNERK HCFR1=SGI

Legend:
VEGF [1] = target: T1, VEGF (UniProt P15692-4 27-191, limits assumed); assay: BIAcore SPR, VEGF coupled to the chip, full-length antibody injected; Kd = koff/kon; original FR1 subgroup III sequence (pxVG11VNERK)
T1 construct: Coupled covalently to the biosensor chip; also called VEGF antigen; VEGF (109)
Procedure: (§1) The VEGF-binding affinities of full length antibodies produced in bacterial cells were calculated from association and disassociation rate constants measured using a BIAcore™-2000 surface plasmon resonance system (BIAcore, Inc., Piscataway, N.J.) as described in Chen et al, (1999) J. Mol. Bio. 293:865-881). A biosensor chip was activated for covalent coupling of VEGF using N-ethyl-N′-(3-dimethylaminopropyl)-carbo-dimide hydrochloride (EDC) and N-hydroxysuccinimid (NHS) according to the supplier's (BIAcore, Inc., Piscataway, N.J.) instructions. VEGF (109) or VEGF (165) was buffer-exchanged into 20 mM sodium acetate, pH 4.8 and diluted to approximately […] to achieve approximately 700-1400 response units (RU) of coupled protein. A solution of 1 M ethanolamine was injected as a blocking agent.
(§2) For kinetics measurements, twofold serial dilutions of full length antibodies were injected in PBS/Tween buffer (0.05% Tween-20 in phosphate-buffered saline) at 25° C. or 37° C. at a flow rate of 10 μl/minute. Equilibrium dissociation constants, Kd values from SPR measurements were calculated as koff/kₒₙ.
(§3) To determine if the FR1 subgroup substitutions had any effect on the binding affinity for VEGF antigen, an affinity assay was performed using the expressed antibodies obtained from bacterial cells.

VEGF [2] = target: T1, VEGF; assay: BIAcore SPR, VEGF coupled to the chip, full-length antibody injected; Kd = koff/kon; subgroup I sequence substitution (pVKFR1-2)
Procedure: as §1, §2, §3

T1 sequence (P15692 other isoform, or with tags, fused parts or gaps limits assumed): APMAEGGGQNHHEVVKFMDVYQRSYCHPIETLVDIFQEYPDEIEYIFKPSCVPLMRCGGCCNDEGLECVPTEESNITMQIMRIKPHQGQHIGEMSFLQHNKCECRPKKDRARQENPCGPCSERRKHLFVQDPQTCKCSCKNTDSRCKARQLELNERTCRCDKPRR

Row | Binder | Kd (VEGF [1]) [pM] | Kd (VEGF [2]) [pM]
1 | B1 | 120 | –
2 | B2 | – | 190
